Reference: publication PMC9482650, “Quantitative fragmentomics allow affinity mapping of interactomes” (Nature Communications, 2022)
Substitutions are numbered along the chain they refer to.

What was measured:
Assay in all cases: holdup assay
Set-up in all cases: key: below the threshold = too weak to quantify, mostly under pKd 3.1 to 4
[1] = biological target: NHERF2_2, Q15599
[2] = biological target: Inadl_9, Q8NI35
[3] = biological target: T1, LIN7A, O14910
T1 sequence (O14910 103-200, limits assumed, looked up): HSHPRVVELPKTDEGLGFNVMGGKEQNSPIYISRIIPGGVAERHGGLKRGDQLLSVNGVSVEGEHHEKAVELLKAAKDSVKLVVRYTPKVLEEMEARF

[4] = biological target: HTRA2, O43464
Chain of HTRA2, O43464 (O43464 355-458): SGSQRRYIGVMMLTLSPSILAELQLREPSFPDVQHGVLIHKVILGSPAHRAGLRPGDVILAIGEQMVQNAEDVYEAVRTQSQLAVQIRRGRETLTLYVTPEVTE

[5] = biological target: DLG1_1, Q12959
[6] = biological target: T2, TJP3_3, O95049
T2 sequence (O95049 375-456, limits assumed, looked up): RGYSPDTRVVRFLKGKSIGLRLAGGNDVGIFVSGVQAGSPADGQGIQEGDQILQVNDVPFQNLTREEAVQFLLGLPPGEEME

[7] = biological target: Inadl_2, Q8NI35
Chain of Inadl_2, Q8NI35 (Q8NI35 238-335): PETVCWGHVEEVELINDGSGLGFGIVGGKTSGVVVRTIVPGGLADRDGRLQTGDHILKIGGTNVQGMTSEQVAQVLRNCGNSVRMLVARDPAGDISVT

[8] = biological target: MAST1, Q9Y2H9
Chain of MAST1, Q9Y2H9 (Q9Y2H9 962-1065): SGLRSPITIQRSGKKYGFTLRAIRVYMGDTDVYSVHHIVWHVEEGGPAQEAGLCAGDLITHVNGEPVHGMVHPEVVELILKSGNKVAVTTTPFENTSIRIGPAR

[9] = biological target: Inadl_1, Q8NI35
Chain of Inadl_1, Q8NI35 (Q8NI35 113-229): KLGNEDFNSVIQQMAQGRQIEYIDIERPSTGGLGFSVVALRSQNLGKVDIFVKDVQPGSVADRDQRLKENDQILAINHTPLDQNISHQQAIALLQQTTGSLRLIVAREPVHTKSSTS

[10] = biological target: T3, LIN7C, Q9NUP9
T3 sequence (Q9NUP9 88-185, limits assumed, looked up): T1 sequence (O14910 103-200, limits assumed, looked up) with D13E, V20I, V40I, E42D, K77Q, D78G, S79K, A96S

[11] = biological target: T4, DLG3_1, Q92796
T4 sequence (Q92796 125-227, limits assumed, looked up): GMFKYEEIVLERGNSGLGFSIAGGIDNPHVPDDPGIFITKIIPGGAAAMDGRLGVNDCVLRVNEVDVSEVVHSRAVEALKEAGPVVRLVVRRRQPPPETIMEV

[12] = biological target: DLG4_2, P78352
Chain of DLG4_2, P78352 (P78352 155-259): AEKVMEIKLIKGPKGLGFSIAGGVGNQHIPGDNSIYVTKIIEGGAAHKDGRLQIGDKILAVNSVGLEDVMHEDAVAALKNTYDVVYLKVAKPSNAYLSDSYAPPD

[13] = biological target: T5, PARD3B_1, Q8TEW8
T5 sequence (Q8TEW8 196-299, limits assumed, looked up): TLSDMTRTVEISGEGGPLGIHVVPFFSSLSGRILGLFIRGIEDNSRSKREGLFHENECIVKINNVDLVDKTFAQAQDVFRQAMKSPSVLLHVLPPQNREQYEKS

[14] = biological target: GRIP2_3, Q9C0E4
Chain of GRIP2_3, Q9C0E4 (Q9C0E4 238-339): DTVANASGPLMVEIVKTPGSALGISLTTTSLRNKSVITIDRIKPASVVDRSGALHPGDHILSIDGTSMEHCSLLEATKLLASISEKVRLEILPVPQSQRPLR

[15] = biological target: GORASP1, Q9BQQ3
Chain of GORASP1, Q9BQQ3 (Q9BQQ3 1-208): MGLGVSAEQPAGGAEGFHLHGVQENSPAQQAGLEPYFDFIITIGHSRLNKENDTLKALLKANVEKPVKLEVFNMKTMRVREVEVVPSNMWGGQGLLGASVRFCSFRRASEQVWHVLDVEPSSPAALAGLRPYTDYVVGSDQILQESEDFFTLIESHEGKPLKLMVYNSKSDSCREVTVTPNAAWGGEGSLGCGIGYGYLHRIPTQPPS

[16] = biological target: MAGI1_2, Q96QZ7
Chain of MAGI1_2, Q96QZ7 (Q96QZ7 456-580): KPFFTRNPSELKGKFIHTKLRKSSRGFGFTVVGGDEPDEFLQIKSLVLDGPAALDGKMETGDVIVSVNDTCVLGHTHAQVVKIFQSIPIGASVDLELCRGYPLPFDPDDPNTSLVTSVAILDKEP

[17] = biological target: PARD3_3, Q8TEW0
Chain of PARD3_3, Q8TEW0 (Q8TEW0 582-685): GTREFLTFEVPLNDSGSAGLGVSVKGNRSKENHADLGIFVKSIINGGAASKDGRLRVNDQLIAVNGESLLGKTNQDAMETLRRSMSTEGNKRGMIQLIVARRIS

[18] = biological target: PTPN3, P26045
Chain of PTPN3, P26045 (P26045 505-587): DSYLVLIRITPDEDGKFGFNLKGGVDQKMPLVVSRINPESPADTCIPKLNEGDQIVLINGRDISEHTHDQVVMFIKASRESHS

[19] = biological target: T6, SHANK1, Q9Y566
T6 sequence (Q9Y566 658-767, limits assumed, looked up): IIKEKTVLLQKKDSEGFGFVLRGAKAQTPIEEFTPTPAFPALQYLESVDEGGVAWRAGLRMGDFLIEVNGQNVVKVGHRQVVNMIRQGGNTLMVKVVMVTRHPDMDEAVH

[20] = biological target: AHNAK1, Q09666
Chain of AHNAK1, Q09666 (Q09666 4-100): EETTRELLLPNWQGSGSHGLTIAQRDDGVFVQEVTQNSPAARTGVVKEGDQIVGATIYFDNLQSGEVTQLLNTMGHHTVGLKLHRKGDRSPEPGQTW

[21] = biological target: T7, RADIL, Q96JH8
T7 sequence (Q96JH8 971-1071, limits assumed, looked up): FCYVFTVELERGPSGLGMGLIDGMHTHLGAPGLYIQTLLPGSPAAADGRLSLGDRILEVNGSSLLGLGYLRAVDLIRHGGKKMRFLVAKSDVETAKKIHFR

[22] = biological target: MAGI2_5, Q86UL8
Chain of MAGI2_5, Q86UL8 (Q86UL8 915-1017): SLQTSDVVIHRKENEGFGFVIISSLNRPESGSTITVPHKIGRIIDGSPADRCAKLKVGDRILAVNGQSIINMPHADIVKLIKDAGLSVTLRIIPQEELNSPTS

[23] = biological target: T8, APBA1_2, Q02410
T8 sequence (Q02410 742-832, limits assumed, looked up): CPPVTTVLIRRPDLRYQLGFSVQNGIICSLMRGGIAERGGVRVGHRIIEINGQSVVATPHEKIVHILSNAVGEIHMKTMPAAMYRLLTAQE

[24] = biological target: DLG2_2, Q15700
Chain of DLG2_2, Q15700 (Q15700 189-283): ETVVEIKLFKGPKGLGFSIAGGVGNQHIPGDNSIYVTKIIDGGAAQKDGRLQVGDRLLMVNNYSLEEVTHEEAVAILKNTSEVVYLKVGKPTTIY

[25] = biological target: MAGI1_1, Q96QZ7
Chain of MAGI1_1, Q96QZ7 (Q96QZ7 1-106): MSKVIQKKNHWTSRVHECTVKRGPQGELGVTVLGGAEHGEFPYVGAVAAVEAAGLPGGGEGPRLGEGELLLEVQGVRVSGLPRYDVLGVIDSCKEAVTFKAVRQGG

[26] = biological target: T9, GRIP1_5, Q9Y3R0
T9 sequence (Q9Y3R0 568-668, limits assumed, looked up): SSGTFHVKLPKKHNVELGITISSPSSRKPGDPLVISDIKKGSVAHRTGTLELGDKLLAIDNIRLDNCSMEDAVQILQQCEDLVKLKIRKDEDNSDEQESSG

[27] = biological target: T10, SYNJ2BP, P57105
T10 sequence (P57105 8-110, limits assumed, looked up): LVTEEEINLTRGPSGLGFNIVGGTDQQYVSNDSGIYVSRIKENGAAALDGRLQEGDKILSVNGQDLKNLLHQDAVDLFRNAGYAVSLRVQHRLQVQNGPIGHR

[28] = plain residues with an end cap or a label only (N-terminal biotin on a linker: (peg)3)
[29] = plain residues with an end cap or a label only (N-terminal biotin on a linker: ado-ado)
[30] = plain residues with an end cap or a label only (N-terminal biotin on a linker: ahx)

Chain of Inadl_9, Q8NI35 (Q8NI35 1530-1615): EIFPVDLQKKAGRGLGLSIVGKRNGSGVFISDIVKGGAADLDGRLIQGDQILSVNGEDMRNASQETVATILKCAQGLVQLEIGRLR
Chain of NHERF2_2, Q15599 (Q15599 142-238): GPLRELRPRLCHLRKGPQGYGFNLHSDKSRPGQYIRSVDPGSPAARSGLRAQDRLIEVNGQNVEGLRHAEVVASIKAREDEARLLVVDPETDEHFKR

B1: HBV-HBc, P03193 (peptide)
chain: RRRRSQSRESQC
For B1, the pKd [1, 28] was “below the threshold”, the pKd [2, 28] was “below the threshold” and the pKd [3, 28] was “below the threshold”. The pKd [4, 28] was “below the threshold”, the pKd [5, 28] was 4.23 and the pKd [6, 28] was “below the threshold”. For the same binder, the pKd [7, 28] was “below the threshold”, the pKd [8, 28] was 3.92 and the pKd [9, 28] was “below the threshold”. It also gave a pKd [10, 28] of 3.66, a pKd [11, 28] of 3.59 and a pKd [12, 28] of 4.3. For the same binder, the pKd [13, 28] was “below the threshold”, the pKd [14, 28] was “below the threshold” and the pKd [15, 28] was “below the threshold”. The pKd [16, 28] was 4.07, the pKd [17, 28] was “below the threshold” and the pKd [18, 28] was 4.7. The pKd [19, 28] was “below the threshold”, the pKd [20, 28] was “below the threshold” and the pKd [21, 28] was “below the threshold”. For the same binder, the pKd [22, 28] was 3.89, the pKd [23, 28] was “below the threshold” and the pKd [24, 28] was 4.22. For the same binder, the pKd [25, 28] was “below the threshold”, the pKd [26, 28] was “below the threshold” and the pKd [27, 28] was 4.59.

B2: CACNG8, Q8WXS5 (peptide)
chain: NTLNRKTTPV
B2 was tested, and the pKd [1, 29] was “below the threshold”, the pKd [2, 29] was “below the threshold” and the pKd [3, 29] was “below the threshold”. For the same binder, the pKd [4, 29] was “below the threshold”, the pKd [5, 29] was 4.32 and the pKd [6, 29] was “below the threshold”. The pKd [7, 29] was “below the threshold”, the pKd [8, 29] was 4.17 and the pKd [9, 29] was “below the threshold”. For the same binder, the pKd [10, 29] was “below the threshold”, the pKd [11, 29] was 3.58 and the pKd [12, 29] was 4.94. For the same binder, the pKd [13, 29] was “below the threshold”, the pKd [14, 29] was “below the threshold” and the pKd [15, 29] was “below the threshold”. The pKd [16, 29] was 4.64, the pKd [17, 29] was “below the threshold” and the pKd [18, 29] was 4.98. The pKd [19, 29] was “below the threshold”, the pKd [20, 29] was “below the threshold” and the pKd [21, 29] was “below the threshold”. For the same binder, the pKd [22, 29] was “below the threshold”, the pKd [23, 29] was 3.91 and the pKd [24, 29] was 4.61. For the same binder, the pKd [25, 29] was “below the threshold”, the pKd [26, 29] was 3.48 and the pKd [27, 29] was 4.85.

B3: FRMPD1, Q5SYB0 (peptide)
chain: TQKFRASTAL
B3 was tested, and the pKd [1, 30] was 4.03, the pKd [2, 30] was “below the threshold” and the pKd [3, 30] was “below the threshold”. For the same binder, the pKd [4, 30] was “below the threshold”, the pKd [5, 30] was “below the threshold” and the pKd [6, 30] was “below the threshold”. The pKd [7, 30] was “below the threshold”, the pKd [8, 30] was 4.44 and the pKd [9, 30] was “below the threshold”. The pKd [10, 30] was 3.52, the pKd [11, 30] was “below the threshold” and the pKd [12, 30] was 3.55. The pKd [13, 30] was “below the threshold”, the pKd [14, 30] was “below the threshold” and the pKd [15, 30] was 3.51. The pKd [16, 30] was 4.97, the pKd [17, 30] was “below the threshold” and the pKd [18, 30] was 4.45. The pKd [19, 30] was 4.62, the pKd [20, 30] was “below the threshold” and the pKd [21, 30] was “below the threshold”. For the same binder, the pKd [22, 30] was 3.59, the pKd [23, 30] was 3.5 and the pKd [24, 30] was 4.17. For the same binder, the pKd [25, 30] was “below the threshold”, the pKd [26, 30] was “below the threshold” and the pKd [27, 30] was 4.26.

B4: PTGIR, P43119 (peptide)
chain: AEASVACSLC
For B4, the pKd [1, 29] was “below the threshold”, the pKd [2, 29] was “below the threshold” and the pKd [3, 29] was “below the threshold”. For the same binder, the pKd [4, 29] was 3.78, the pKd [5, 29] was “below the threshold” and the pKd [6, 29] was “below the threshold”. For the same binder, the pKd [7, 29] was “below the threshold”, the pKd [8, 29] was “below the threshold” and the pKd [9, 29] was “below the threshold”. The pKd [10, 29] was “below the threshold”, the pKd [11, 29] was “below the threshold” and the pKd [12, 29] was “below the threshold”. For the same binder, the pKd [13, 29] was “below the threshold”, the pKd [14, 29] was “below the threshold” and the pKd [15, 29] was “below the threshold”. The pKd [16, 29] was “below the threshold”, the pKd [17, 29] was “below the threshold” and the pKd [18, 29] was 3.54. For the same binder, the pKd [19, 29] was 3.65, the pKd [20, 29] was “below the threshold” and the pKd [21, 29] was 3.94. For the same binder, the pKd [22, 29] was 4.98, the pKd [23, 29] was “below the threshold” and the pKd [24, 29] was “below the threshold”. For the same binder, the pKd [25, 29] was “below the threshold”, the pKd [26, 29] was “below the threshold” and the pKd [27, 29] was “below the threshold”.

B5: CACNG2, Q9Y698 (peptide)
chain: NTANRRTTPV
With B5 the pKd [1, 29] was “below the threshold”, the pKd [2, 29] was “below the threshold” and the pKd [3, 29] was “below the threshold”. For the same binder, the pKd [4, 29] was “below the threshold”, the pKd [5, 29] was 4.34 and the pKd [6, 29] was “below the threshold”. For the same binder, the pKd [7, 29] was “below the threshold”, the pKd [8, 29] was “below the threshold” and the pKd [9, 29] was “below the threshold”. For the same binder, the pKd [10, 29] was “below the threshold”, the pKd [11, 29] was 3.61 and the pKd [12, 29] was 4.89. The pKd [13, 29] was “below the threshold”, the pKd [14, 29] was “below the threshold” and the pKd [15, 29] was “below the threshold”. For the same binder, the pKd [16, 29] was 4.72, the pKd [17, 29] was “below the threshold” and the pKd [18, 29] was 4.52. For the same binder, the pKd [19, 29] was “below the threshold”, the pKd [20, 29] was “below the threshold” and the pKd [21, 29] was “below the threshold”. For the same binder, the pKd [22, 29] was “below the threshold”, the pKd [23, 29] was 3.76 and the pKd [24, 29] was 4.53. The pKd [25, 29] was “below the threshold”, the pKd [26, 29] was “below the threshold” and the pKd [27, 29] was 5.08.
